For this test, the target named is human FcαRI (IgA Fc receptor, CD89) on effector cells (human) (UniProt P24071). Description: cell-based or functional assay.

The record followed here is patent US20010014328A1.

Take “A77X520C9 anti-FcαRXanti-HER2/neu bispecific antibody”: the BsAb-dependent lysis of SKBR-3 cells by purified PMN, 1.0 µg/ml BsAb (FIG. 10) was under 37%; the cytolysis of SKBR-3 breast tumor cells by effector cells in whole blood, 0.1 µg/ml BsAb (FIG. 8) lay within 15 to 20%; the cytolysis of SKBR-3 breast tumor cells by effector cells in whole blood, 1.0 µg/ml BsAb (FIG. 8) lay in the range of 25 to 30%; the cytotoxicity of SKBR-3 cells by neutrophil effector cells (51Cr release), 0.1 µg/ml BsAb (FIG. 7) lay within 6 to 9%. The substance also had a cytotoxicity of SKBR-3 cells by neutrophil effector cells (51Cr release), 1.0 µg/ml BsAb (FIG. 7) of 20 to 30%; a cytotoxicity of SKBR-3 cells by neutrophils pre-incubated with G-CSF and IFN-γ, 0.1 µg/ml BsAb (FIG. 22) of over 10%; a percent effector cells (monocytes or neutrophils) engaged in phagocytosis of SKBR-3 cells (FIG. 18) of 65 to 75%; a phagocytosis of SKBR-3 cells by monocyte-derived macrophages, 0.1 µg/ml BsAb (FIG. 19, panel 5; about 45% without BsAb) of over 95%.

The substance “A77XH425 bispecific antibody (anti-FcαRI x anti-EGF-R)” returned a BsAb-dependent lysis of A431 cells by purified monocytes (FIG. 14) of under 55%; a BsAb-dependent lysis of A431 cells with whole blood as source of effector cells (FIG. 15) of under 43%; a cytolysis of tumor cells by TNF-treated monocytes, 1.0 µg/ml BsAb (FIG. 23) of over 60%; a cytolysis of tumor cells by untreated monocytes, 1.0 µg/ml BsAb (FIG. 23) of over 60%.
